Drawing on US20100278834A1, this text covers IC50, neutralisation of retroviral pseudotypes, Reciprocal neutralising titre of culture supernatant (reciprocal titre) and Inhibition of binding (%) for one molecule.

Test [1] has as its target hemagglutinin of A/Indonesia/5/05 (H5N1, clade 2) (influenza A virus A/Indonesia/5/05 (H5N1)). Briefly: cell-based or functional assay.
For test [2], the target named is hemagglutinin of A/Vietnam/1203/04 (H5N1) (influenza A virus A/Vietnam/1203/04 (H5N1)). Briefly: cell-based or functional assay.
Test [3] concerns the target hemagglutinin of H5N1 clade 1 strain A/Hong Kong/213/03 (influenza A virus A/Hong Kong/213/03 (H5N1)). The experiment in a line: cell-based or functional assay.
Test [4] has as its target hemagglutinin of H5N1 clade 1 strain HK/491/97 (influenza A virus HK/491/97 (H5N1)). Briefly: cell-based or functional assay.
The target in test [5] is hemagglutinin of H5N1 clade 1 strain VN/1194.04 (influenza A virus VN/1194.04 (H5N1)). Briefly: cell-based or functional assay.
For test [6], the target named is hemagglutinin of H5N1 clade 2.2 strain TY/TY/1/05 (influenza A virus TY/TY/1/05 (H5N1)). Briefly: cell-based or functional assay.
Test [7] concerns the target hemagglutinin of H5N1 clade 2.2 strain WS/Mong/244/05 (influenza A virus WS/Mong/244/05 (H5N1)). The experiment in a line: cell-based or functional assay.
For test [8], the target named is hemagglutinin of H5N1 clade 2.3 strain Anhui/1/05 (influenza A virus Anhui/1/05 (H5N1)). The experiment in a line: cell-based or functional assay.
In test [9] the target is H5 hemagglutinin (HA) of H5N1 influenza A virus, strain not stated (influenza A virus (H5N1), strain not stated). Briefly: cross-inhibition of binding to HA; competitor: FLD194.
Test [10] has the same target. The experiment in a line: cross-inhibition of binding to HA; competitor: FLA3.14.
Test [11] has the same target. The experiment in a line: cross-inhibition of binding to HA; competitor: FLD20.19.

B1: FLD20.19 (antibody, V domains shown)
VH: QVQLVQSGAEVKKPGSSVTVSCKASGGTFSNYGISWVRQAPGQGLDWMGGIIPLFGTANYAQKFQGRVTITADESTSSSNMELSSLRSEDTAVYYCARDVHNYDFLTGYPLHLYGMDVWGQGTTVTVSS
VL: DIQMTQSPSSLSASVGDRVTITCRASQSISTYLNWYQQKPGIPPKLLINVASSLQSGVPSRFSGSGSGTDFTLTISSLQPEDFASYYCQQTYSSPPTFGQGTKVEIK
With B1, the IC50, neutralisation of retroviral pseudotypes stood at 77 ng/mL in test [1]; 16 ng/mL in [2]; 10 ng/mL in test [3]; 13 ng/mL in [5]; 10 ng/mL in test [6]; 4 ng/mL in test [7]. In [8], this molecule displayed an IC50, neutralisation of retroviral pseudotypes of 104 ng/mL. The Reciprocal neutralising titre of culture supernatant (reciprocal titre) in [1] amounted to 813; in test [2], 181; in test [4], 181. The Inhibition of binding (%) is 0% in test [9], 0% in [10] and 100% in test [11].
